Assay [1] deals with TAZ1 (transcriptional adaptor zinc-binding 1) domain of CREB binding protein (CBP) (human) (UniProt Q92793). Put plainly: stopped-flow fluorimetry (association kinetics); TAZ1 constant at 0.5-0.9 µM, Hif-1α CAD variant varied 1-15 µM; Trp-418 fluorescence of TAZ1; 293 K; 20 mM HEPES pH 6.9, 1 mM TCEP, 190 mM NaCl; apparent kon from the fast phase; Kd = koff^app/kon^app with koff^app from the displacement experiments.

Assay [2] shares this target. Put plainly: stopped-flow fluorimetry (displacement); complex TAZ1/Hif-1α CAD variant (0.75 µM/0.5 µM) mixed with excess TAZ1 W418Y (10-50 µM); kobs at excess equals apparent koff; 293 K; 20 mM HEPES pH 6.9, 1 mM TCEP, 190 mM NaCl.
Assay [3] shares this target. Put plainly: ITC; 15 µM TAZ1 in the cell, 149 µM Hif-1α CAD (L813A) in the syringe; 293 K; 20 mM HEPES pH 6.9, 1 mM TCEP, 190 mM NaCl; one-to-one model.

The results in this text go back to article PMC5959852.

Sequence of Hif-1α CAD hydroxylated at Asn-803 (Q16665 776-826): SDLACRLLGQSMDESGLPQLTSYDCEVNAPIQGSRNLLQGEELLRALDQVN
Sequence of C-terminal activation domain of hypoxia inducible factor 1α (Hif-1α CAD), wild type (Q16665 776-826): as above

For “Hif-1α CAD I806V (from UniProt Q16665 776-826) (domain or fragment)”, in assay [1], the Kd is 5.93 nM and the kon was 9.73e+06 M⁻¹ s⁻¹. Also, in assay [2], the koff is 0.0577 s⁻¹.
For “Hif-1α CAD hydroxylated at Asn-803 (from UniProt Q16665 776-826) (domain or fragment)” the same measures were 172 nM, 7.7e+06 M⁻¹ s⁻¹ and 1.32 s⁻¹.
In the case of “Hif-1α CAD T796S (from UniProt Q16665 776-826) (domain or fragment)”, in assay [1], the Kd worked out at 3.23 nM and the kon stood at 8.27e+06 M⁻¹ s⁻¹. Moreover, in assay [2], the koff is 0.0267 s⁻¹.
For “Hif-1α CAD L795A (from UniProt Q16665 776-826) (domain or fragment)” the same measures were 1100 nM, 6.12e+06 M⁻¹ s⁻¹ and 6.74 s⁻¹.
For “Hif-1α CAD C800A (from UniProt Q16665 776-826) (domain or fragment)” the same measures were 17.7 nM, 6.55e+06 M⁻¹ s⁻¹ and 0.116 s⁻¹.
Consider “Hif-1α CAD L783A (from UniProt Q16665 776-826) (domain or fragment)”, for which, in assay [1], the Kd was found to be 3.6 nM and the kon is 9.62e+06 M⁻¹ s⁻¹. The koff in assay [2] turned out to be 0.0346 s⁻¹.
“Hif-1α CAD L792A (from UniProt Q16665 776-826) (domain or fragment)”: in assay [1], the Kd stood at 160 nM and the kon amounted to 5.75e+06 M⁻¹ s⁻¹. For the same substance, the koff in assay [2] is 0.92 s⁻¹.
With “Hif-1α CAD L813A (from UniProt Q16665 776-826) (domain or fragment)”, the Kd was found to be 137 nM in assay [1] and 144 nM in assay [3]. Also, the kon in assay [1] turned out to be 8.52e+06 M⁻¹ s⁻¹. The koff in assay [2] stood at 1.17 s⁻¹.
Consider “Hif-1α CAD L778A (from UniProt Q16665 776-826) (domain or fragment)”, for which, in assay [1], the Kd turned out to be 3.65 nM and the kon was 8.06e+06 M⁻¹ s⁻¹. The koff in assay [2] is 0.0294 s⁻¹.
With “Hif-1α CAD M787A (from UniProt Q16665 776-826) (domain or fragment)”, in assay [1], the Kd turned out to be 4.83 nM and the kon worked out at 6.7e+06 M⁻¹ s⁻¹. For the same substance, in assay [2], the koff was determined as 0.0324 s⁻¹.
As for “Hif-1α CAD C780A (from UniProt Q16665 776-826) (domain or fragment)”, in assay [1], the Kd was 3.78 nM and the association rate constant (kon) was 9.56e+06 M⁻¹ s⁻¹. Moreover, in assay [2], the off-rate (koff) is 0.0361 s⁻¹.
Consider “Hif-1α CAD L819A (from UniProt Q16665 776-826) (domain or fragment)”, for which, in assay [1], the Kd was 23.1 nM and the on-rate (kon) was 6.1e+06 M⁻¹ s⁻¹. Also, in assay [2], the koff stood at 0.141 s⁻¹.
For “Hif-1α CAD L782A (from UniProt Q16665 776-826) (domain or fragment)”, in assay [1], the Kd was determined as 4.56 nM and the kon came out at 7.36e+06 M⁻¹ s⁻¹. Besides, in assay [2], the dissociation rate constant (koff) was determined as 0.0336 s⁻¹.
For “C-terminal activation domain of hypoxia inducible factor 1α (Hif-1α CAD), wild type (from UniProt Q16665 776-826) (domain or fragment)” the same measures were 3.36 nM, 8.83e+06 M⁻¹ s⁻¹ and 0.0297 s⁻¹.
For “Hif-1α CAD L818A (from UniProt Q16665 776-826) (domain or fragment)”, in that order: 205 nM, 6.23e+06 M⁻¹ s⁻¹ and 1.27 s⁻¹.
For “Hif-1α CAD L812A (from UniProt Q16665 776-826) (domain or fragment)” the same measures were 71.5 nM, 7.12e+06 M⁻¹ s⁻¹ and 0.509 s⁻¹.
With “Hif-1α CAD V825A (from UniProt Q16665 776-826) (domain or fragment)”, in assay [1], the Kd was 2.12 nM and the kon was 1.04e+07 M⁻¹ s⁻¹. Further, the koff in assay [2] was 0.022 s⁻¹.
For the substance “Hif-1α CAD V802A (from UniProt Q16665 776-826) (domain or fragment)”, in assay [1], the Kd worked out at 13.7 nM and the kon is 7.28e+06 M⁻¹ s⁻¹. In assay [2], the koff is 0.0995 s⁻¹.
